We go through two molecules from patent US20220348651A1, “ENTPD2 ANTIBODIES, COMBINATION THERAPIES, AND METHODS OF USING THE ANTIBODIES AND COMBINATION THERAPIES” (Novartis AG, priority 2019, published 2022).

For assay [1], the target named is T1, mouse ENTPD2 (Mus musculus, UniProt O55026).
T1 construct: expressed in transfected cells; host or cells: NIH/3T3 (retroviral transduction)
T1 sequence (O55026 1-495): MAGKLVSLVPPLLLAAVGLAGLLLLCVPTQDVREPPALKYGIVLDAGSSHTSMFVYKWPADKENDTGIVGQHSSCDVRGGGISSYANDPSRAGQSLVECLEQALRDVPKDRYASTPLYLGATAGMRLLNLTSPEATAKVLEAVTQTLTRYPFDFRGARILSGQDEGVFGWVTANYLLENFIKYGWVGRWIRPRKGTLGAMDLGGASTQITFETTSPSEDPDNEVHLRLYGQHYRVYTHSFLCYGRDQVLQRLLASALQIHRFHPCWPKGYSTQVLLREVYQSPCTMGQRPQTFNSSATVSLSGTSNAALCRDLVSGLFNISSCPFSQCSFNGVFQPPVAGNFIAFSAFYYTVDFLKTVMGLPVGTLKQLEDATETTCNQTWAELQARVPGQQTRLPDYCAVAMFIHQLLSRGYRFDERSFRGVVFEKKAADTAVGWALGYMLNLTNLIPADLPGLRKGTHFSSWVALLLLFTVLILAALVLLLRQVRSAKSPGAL
The assay can be described thus: Mouse ENTPD2 NIH/3T3 cell-based functional assay. The text has this: Biochemical and cell-based functional assays were developed in-house to understand functional impact of anti-ENTPD2 Abs against purified extracellular domain of ENTPD2 (residues 29-462), as well as against the fully intact protein in the context of the native cell-based conformation. ENTPD2 hydrolyzes ATP to ADP, which can subsequently be detected using the HTRF Transcreener ADP2 TR-FRET Red Assay (BellBrook Labs, Madison, Wis.) where ENTPD2-produced ADP would compete with the ADP Tracer for binding to the anti-ADP-Tb antibody. The resulting signal is inversely proportional to the concentration of ADP in the sample.
To establish cell-based functional assays, human/cyno/mouse ENTPD2-engineered NIH/3T3 cells or RKO (ATCC, Manassa Va.) colorectal cancer cells with endogenous ENTPD2 expression were plated overnight at 150, 200 and 250 cells per well for NIH/3T3 mouse, cyno and human ENTPD2 lines, respectively, or 1000 cells per well for RKO in 384-well tissue culture plate, in 30 μl per well (Perkin Elmer, Waltham, Mass.). The following day cells were pre-incubated with Anti-ENTPD2 Abs in dose response for 60 min at 37° C., 5% CO2 (10 μl of 5× antibody dose per well), and subsequently stimulated with a final concentration of 10 μM ATP (Teknova, Hollister, Calif.) for 20 minutes at room temperature (10 μl of 5× (50 μM) ATP per well). Reactions were quenched with 40 mM EDTA/40 mM EGTA, 25 μl per well, and 15 μl of quenched media was transferred to low volume Proxiplates (PerkinElmer, Waltham, Mass.) for ADP detection. ADP production was detected with the Transcreener ADP2 TR-FRET Red Assay (BellBrook Labs, Madison, Wis.) with a final concentration of 4 nM ADP2 antibody and 13.4 nM of ADP Tracer in wells (4× solution was prepared and 5 μL of “Detection Reagent Mix” was added to the quenched conditioned media). Plates were incubated with detection reagents for 1 hour at room temperature prior to reading plates in HTRF mode.
HTRF signal (Emission at 620 nm and 665 nm) was assessed in both assays using the Envision plate reader in HTRF mode (Perkin Elmer, Waltham, Mass.). HTRF ratio was determined using the following formula: HTRF ratio=R=Emission at 665 nm/Emission at 620 nm×10,000. Subsequently % Residual Activity and % Inhibition were determined as follows:
Where R0% is the HTRF ratio of the negative control (0% enzyme activity), and R100% is the HTRF ratio of the positive control (100% enzyme activity). Data were analyzed in Microsoft Excel and graphed using GraphPad's Prism 7.0 software and IC50 values were obtained using non-linear regression, log (agonist) vs. response-variable slope (four parameters) analysis.
Anti-ENTPD2 mAb13 was identified as a mouse ENTPD2 selective Ab (FACS EC50 3-4 nM) with no binding to human or cyno ENTPD2.

Assay [2] deals with T2, mouse ENTPD2 (Mus musculus, UniProt O55026).
T2 construct: residues 29-462 of mouse or rat ENTPD2 (the extracellular domain); mouse IgK signal peptide (N); His6; made in house; host or cells: FreeStyle 293-F cells, transient transfection
T2 sequence (O55026 29-462): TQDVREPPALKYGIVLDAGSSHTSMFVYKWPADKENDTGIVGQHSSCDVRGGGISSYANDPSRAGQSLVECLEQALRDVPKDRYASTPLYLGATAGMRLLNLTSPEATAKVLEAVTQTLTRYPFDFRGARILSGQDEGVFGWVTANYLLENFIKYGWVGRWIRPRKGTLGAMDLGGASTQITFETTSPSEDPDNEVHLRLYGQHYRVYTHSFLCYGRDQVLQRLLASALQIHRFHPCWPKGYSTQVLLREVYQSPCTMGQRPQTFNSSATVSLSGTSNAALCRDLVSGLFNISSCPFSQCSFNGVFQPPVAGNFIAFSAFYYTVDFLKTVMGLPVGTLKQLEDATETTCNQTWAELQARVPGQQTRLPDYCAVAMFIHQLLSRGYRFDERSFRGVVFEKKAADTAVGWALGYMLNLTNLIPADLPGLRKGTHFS
The assay can be described thus: Antibody specificity: binding to mouse ENTPD2. To be noted: Mouse ENTPD2. From the text: Antibody specificity for mAbl-mAblO was confirmed. […] Antibodies mAb8, mAb9, and mAb10 show weak affinity to mouse ENTPD2. None of the selected antibodies bind to rat ENTPD2.

B1: mAb13: anti-mouse ENTPD2 antibody; HC SEQ ID NO: 193, LC SEQ ID NO: 204 (antibody)
heavy: QVQLVQSGAELKQPGQSVKISCKASGYTFTHYGMNWVKQAPGQGLKWMGWINTDTGNPTYADDFKGRFVFSLDTSVSTAYLQISNLKNEDTATYYCVRYGTLYSGYGFFFDSWGQGTLVTVSSAKTTAPSVYPLAPVCGDTTGSSVTLGCLVKGYFPEPVTLTWNSGSLSSGVHTFPAVLQSDLYTLSSSVTVTSSTWPSQSITCNVAHPASSTKVDKKIEPRGPTIKPCPPCKCPAPNLLGGPSVFIFPPKIKDVLMISLSPIVTCVVVDVSEDDPDVQISWFVNNVEVHTAQTQTHREDYNSTLRVVSALPIQHQDWMSGKEFKCKVNNKDLPAPIERTISKPKGSVRAPQVYVLPPPEEEMTKKQVTLTCMVTDFMPEDIYVEWTNNGKTELNYKNTEPVLDSDGSYFMYSKLRVEKKNWVERNSYSCSVVHEGLHNHHTTKSFSRTPGK
light: DIMMTQSPSSLSVSAGEKATITCKSSQSLFNSNTNKNYLNWYLQKPGQSPKLLFYYASTRHTGVPDRFIGSGSGTDFTLTITSVQDEDLADYYCQQWYSYPWTFGPGTKLEIKRADAAPTVSIFPPSSEQLTSGGASVVCFLNNFYPKDINVKWKIDGSERQNGVLNSWTDQDSKDSTYSMSSTLTLTKDEYERHNSYTCEATHKTSTSPIVKSFNRNEC
By % Inhibition is commonly meant the share of the control response that was lost under treatment. With B1, the “maximum target inhibition (mouse ENTPD2 inhibition)” value with mouse ENTPD2 [1] (NIH3T3-mouse ENTPD2 engineered cell line) is 44%. The “% Inhibition at 100 nM (±Std Err)” value with mouse ENTPD2 [1] (mouse ENTPD2 NIH/3T3 cells, 100 nM) is listed as 44 ± 7.3%.

B2: mAb7: humanized anti-human ENTPD2 antibody from mAb17; VH SEQ ID NO: 25, VL SEQ ID NO: 78 (antibody, V domains shown)
VH: QVQLVQSGAEVVKPGASVKISCKASGYTFTDYNMDWVKQAPGQRLEWIGDINPKYDISTYNQQFKGKATITVDKSASTAYMELSSLRSEDTAVYYCARRGFFLYYGINYYYFDVWGQGTLVTVSS
VL: EIVLTQSPATLSASPGEEITLSCSASSSVSYIHWYQQKPGQAPRLLIYSTSNLASGIPARFSGSGSGTFYTLTISSVEPEDAAVYYCHQWSSYPWTFGGGTKLEIK
As for B2, the “BIACore KD” value with mouse ENTPD2 [2] was “No binding”.
